The results in this text go back to US20180362628A1 (KYMAB, published 2018).

Positions count from the first letter of the chain named. No end group written: not given here. *: point of attachment. Biotin = O=C1N[C@H]2[C@H](CS[C@H]2CCCCC(=O)*)N1

For test [1], the target named is Recombinant CSP (Wellcome Trust Sanger Institute, FIG. 22), CSP ectodomain with BirA biotinylation tag, biolinker and histidine tag (Plasmodium falciparum strain 3D7) (UniProt Q7K740). Briefly: SPR, 2A10 on anti-mouse capture surface, CSP as analyte, 25 C, 1:1 fit. Background: Surface plasmon resonance follows binding to a sensor surface in real time, without labels.

For test [2], the target named is T1, Peptide #3 (Biotin-SGSGHKKLKQPGDGNPDPNANPN) (N-terminal biotin).
T1 construct: also called Peptide #3 44288
T1 peptide: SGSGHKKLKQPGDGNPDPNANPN
Briefly: BLI, biotin-peptide on streptavidin sensor, IgG1 in solution, 25 C.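 As to Response (nm): antibody solution at 30 µg/mL during association.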 For orientation: Biolayer interferometry detects binding as a change in optical thickness at a sensor tip.

For test [3], the target named is T2, Peptide #4 (Biotin-SGSGNPDPNANP).
T2 construct: also called Peptide #4 44285
T2 peptide: Biotin-SGSGNPDPNANP
The test is described as above.

The target of test [4] is T3, Peptide #5 (Biotin-SGSGDGNPDPNANPNV), original sequence of the alanine scan.
T3 construct: also called Peptide #5 44289
T3 peptide: Biotin-SGSGDGNPDPNANPNV
Described as above.

Test [5] deals with T4, Peptide #6 (Biotin-SGSGAGNPDPNANPNV).
T4 construct: alanine scan variant; also called Peptide #6 44290
T4 peptide: Biotin-SGSGAGNPDPNANPNV
The test is described as above.

Test [6] deals with T5, Peptide #7 (Biotin-SGSGDANPDPNANPNV).
T5 construct: alanine scan variant; also called Peptide #7 44291
T5 peptide: Biotin-SGSGDANPDPNANPNV
The test is described as above.

The target in test [7] is T6, Peptide #8 (Biotin-SGSGDGAPDPNANPNV).
T6 construct: alanine scan variant; also called Peptide #8 44292
T6 peptide: Biotin-SGSGDGAPDPNANPNV
Described as above.

In test [8] the target is T7, Peptide #9 (Biotin-SGSGDGNADPNANPNV).
T7 construct: alanine scan variant; also called Peptide #9 44293
T7 peptide: Biotin-SGSGDGNADPNANPNV
The description is as above.

Test [9] addresses T8, Peptide #10 (Biotin-SGSGDGNPAPNANPNV).
T8 construct: alanine scan variant; also called Peptide #10 44294
T8 peptide: Biotin-SGSGDGNPAPNANPNV
Described as above.

The target of test [10] is T9, Peptide #11 (Biotin-SGSGDGNPDANANPNV).
T9 construct: alanine scan variant; also called Peptide #11 44295
T9 peptide: Biotin-SGSGDGNPDANANPNV
The test is described as above.

Test [11] concerns the target T10, Peptide #12 (Biotin-SGSGDGNPDPAANPNV).
T10 construct: alanine scan variant; also called Peptide #12 44296
T10 peptide: Biotin-SGSGDGNPDPAANPNV
Described as above.

The target in test [12] is T11, Peptide #14 (Biotin-SGSGDGNPDPNAAPNV).
T11 construct: alanine scan variant; also called Peptide #14 44298
T11 peptide: Biotin-SGSGDGNPDPNAAPNV
The description is as above.

Test [13] concerns the target T12, Peptide #15 (Biotin-SGSGDGNPDPNANANV).
T12 construct: alanine scan variant; also called Peptide #15 44299
T12 peptide: Biotin-SGSGDGNPDPNANANV
The description is as above.

The target of test [14] is T13, Peptide #16 (Biotin-SGSGDGNPDPNANPAV).
T13 construct: alanine scan variant; also called Peptide #16 44300
T13 peptide: Biotin-SGSGDGNPDPNANPAV
Described as above.

Test [15] deals with T14, Peptide #17 (Biotin-SGSGDGNPDPNANPNA).
T14 construct: alanine scan variant; also called Peptide #17 44301
T14 peptide: Biotin-SGSGDGNPDPNANPNA
The description is as above.

The target in test [16] is T15, Peptide #1 (Biotin-SGSGKPKHKKLKQPGDGNPDPNANP) (N-terminal biotin).
T15 construct: also called Peptide #1 44286
T15 peptide: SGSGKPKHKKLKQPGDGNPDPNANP
Described as above.

The target of test [17] is T16, Recombinant CSP (Wellcome Trust Sanger Institute, FIG. 22), CSP ectodomain with BirA biotinylation tag, … (Plasmodium falciparum strain 3D7, UniProt Q7K740 19-376, biotinylated at the BirA substrate peptide).
T16 construct: extracellular domain; Expressed in HEK293, 45 kDa; order of the tags is that of the legend, not confirmed; also called biotinylated recombinant CSP
Briefly: SPR, IgG1 captured, CSP as analyte, 40 C; apparent affinity (avidity).

The target of test [18] is T17, full CSP protein (analyte of Example 12) (Plasmodium falciparum (isolate 3D7), UniProt Q7K740 19-374).
T17 construct: not shown: C-terminal tags
Briefly: SPR, IgG1 from supernatant on anti-human IgG surface, CSP as analyte, 25 C, 1:1 fit.

Test [19] has as its target T16, Recombinant CSP (Wellcome Trust Sanger …). Briefly: SPR (ProteOn), biotinylated CSP on NLC chip, Fab as analyte, 25 C, 1:1 fit.

A word on the koff: it is a measure of how fast the partners let go of each other. As usually defined, the kon is the rate constant with which the complex forms. Consider Mouse monoclonal antibody 2A10 (IgG2aK), for which, in test [1], the Kd was found to be 0.04 nM, the koff turned out to be 9.41e-05 s⁻¹ and the on-rate (kon) was 2.23e+06 M⁻¹ s⁻¹.

B1: Antibody 669, human IgG1 (antibody, V domains shown)
VH: QVQLVQSGAEVKKPGASVRVSCKASGFTFTSYAMHWVRQAPGQRLEWMGWINAGNGHTKYSQKFQDRVAITRDTSATTVYMDLSSLRSEDTAVYYCTRDGFCTSTTCSDHYGMDVWGQGTTVTVSS
VL: QSALTQPASVSGSPGQSITISCTGTSSDVGSYNYVSWYQQHPGKAPKFMIYDVSKRPSGVSNRFSGSKSGNTASLTISGLQAEDEADYYCCSYAGSSTWVFGGGTKLTVL
notes: human IgG1; HEK (Expi293F) product; also called AB-000669; Ab669
As for B1, the “Response (nm)” value in [2] amounted to 5.06 nm; in test [3] it was 5.27 nm; in [4] it was 3.76 nm; in test [5], 3.82 nm; in [6] it was 3.86 nm; in test [7], 3.79 nm. The “Response (nm)” value in [8] is 3.68 nm; in [9], 4.48 nm; in test [10], 2.18 nm; in test [11], 2.81 nm; in test [12], 0.0239 nm; in test [13] it was 2.82 nm. The “Response (nm)” value in test [14] stood at 3.66 nm; in test [15] it was 3.85 nm; in test [16], 5.83 nm. For the same molecule, in test [12], the binding result is given as “no binding (tested: LOD 0.125 nm)”. Also, in test [17], the Kd was found to be 0.47 nM. In addition, the koff in [17] was 0.000125 s⁻¹. The on-rate (kon) in test [17] is 265000 M⁻¹ s⁻¹.

B2: CL-141790 (antibody, V domains shown)
VH: QVQLVQSGAEVKRPGASVKISCKASGYTFTNYAIHWVRQAPGQRLEWMGWINAGNGYTKYSQKFQGRVTITRDTSATSAYLELYSLISEDTAVYYCVRDEYYDSGSSNYYYYGMDVWGQGTTVTVSS
VL: B1 VL with S31N, Y34H, G43D, F48L
notes: human IgG1, HEK (Expi293F) culture supernatant
The molecule B2 gave a kon in test [18] of 428000 M⁻¹ s⁻¹.

B3: Antibody 666 Fab (Fab, V domains shown)
VH: QVQLVQSGAEVKKPGASVKVSCKASGYTFTNYAMHWVRQAPGQRLEWMGWINAGNGNTKYSQNFQGRVTITRDTSASTAYMELSSLRSEDTAVYYCARDEYYASGSYYDYYYYGMDVWGQGTTVTVTS
VL: B1 VL with S31V, Y38F, F48L, D52N, K106N
notes: recombinant human Fab from CHO-3E7 cells, purified on nickel columns
As to B3, in test [19], the Kd is 52 nM, the koff was 0.00249 s⁻¹ and the kon amounted to 48000 M⁻¹ s⁻¹.

B4: CL-141784 (antibody, V domains shown)
VH: QVQLVQSGAEVKNPGASLKVSCKASGYTFTNYAMHWVRQAPGQRLEWMGWINAGNGYTKYSQTFQGRVTITRDTYASTAYMELSSLRSEDTAVYYCVRDEYYESGSSNYYYYGMDVWGQGTTVTVSS
VL: B1 VL with Y34H, F48L, K55T, L107M
notes: as for B2
B4 had a kon in [18] of 541000 M⁻¹ s⁻¹.

B5: CL-141779 (antibody, V domains shown)
VH: B3 VH with N31S, N63K, E100Q, A103D, S104I, G105L, S106T, Y107P, D109Y, T127S
VL: B1 VL with S31G, F48L, D52V
notes: as for B2
For B5, in [18], the kon worked out at 298000 M⁻¹ s⁻¹.

B6: Antibody 667 Fab (Fab, V domains shown)
VH: QVQLVQSGAEVKKPGASVKVSCRASGYTFTNYAMHWVRQAPGQRLEWMGWINAGNGYTKYSQKFQDRVTITRDTSATTAYMELSSLRSEDTAMYYCARDSFYDILSGPVYHYYGMDVWGQGTTVTVSS
VL: B1 VL with A8D, S27N, S31I, Y34H, F48L, S54N, V60I, N71D, T98A
notes: as for B3
B6: in test [19], the Kd was determined as 31.6 nM, the koff stood at 0.00079 s⁻¹ and the kon came out at 25000 M⁻¹ s⁻¹.

B7: Antibody 669 Fab (Fab, V domains shown)
VH: B1 VH
VL: B1 VL
notes: as for B3
For the molecule B7, in test [19], the Kd was 126 nM, the koff was found to be 0.00211 s⁻¹ and the kon worked out at 16800 M⁻¹ s⁻¹.

B8: CL-141786 (antibody, V domains shown)
VH: QVQLLQSGAEVKKPGASVKVSCKASGYTFTNYAMHWLRQAPGQRLEWMGWINAGNGYTKYSQKFQGRVTITRDTSATTAYMDLSSLRSEDTAVYYCARDNYYDSNVYNSYYFYGMDVWGQGTTVTVSS
VL: B1 VL with A3V, S13P, S31N, Y34H, G43D, F48L, S54N, V60I
notes: as for B2
As to B8, in test [18], the kon was 457000 M⁻¹ s⁻¹.

B9: CL-141783 (antibody, V domains shown)
VH: QVQLVQSGAEVKKPGASVKLSCKASGYTFTNYAMHWVRQAPGQSLEWMGWINAGNGYTKYSQKFQGRVTITRDTSANTAYMDLSSLRSEDTAVYYCARDQYYDILKGYYNVDYYYGMDVWGQGTTVAVSS
VL: B1 VL with Y34H, F48L, N62D, A94V
notes: as for B2
B9 yielded a kon in [18] of 128000 M⁻¹ s⁻¹.

B10: Antibody 668 Fab (Fab, V domains shown)
VH: QVQLVQSGAEVKKPGASVKVSCKASGFTFTDYAMHWVRQAPGQRLEWMGWINAGNGYTKYSQKFQDRLTITRDTFASTVYMELSSLRSEDTTVYYCARDGFCPSNTCSGYYGMDVWGQGTTVTVSS
VL: B1 VL with F48L, S54N, K55T, N62I, G66A, I77V, D87V, C91S
notes: as for B3
For the molecule B10, in [19], the Kd is 12.5 nM, the koff came to 0.000473 s⁻¹ and the kon worked out at 37900 M⁻¹ s⁻¹.

B11: CL-141789 (antibody, V domains shown)
VH: B1 VH with A24T, M34I, H35Q, R44G, N55D, A69V, S104T
VL: B1 VL with A45V, Y51S, V60I, N62D, S96G
notes: as for B2
In [18], B11 gave a kon of 293000 M⁻¹ s⁻¹.
